Blank lines part the entries; values can stand above or below the binder they belong to. Numbered stars: 1 amine (or outer) side, 2 acyl side, 3 side chain; on linkers, the order of the positions; unused ones are H or OH. * marks the point of attachment. C20 diacid = O=C(O)CCCCCCCCCCCCCCCCCCC(=O)*; C18 diacid = O=C(O)CCCCCCCCCCCCCCCCC(=O)*; C16 diacid = O=C(O)CCCCCCCCCCCCCCC(=O)*; γGlu = O=C(O)[C@H](CCC(=O)[*:2])N[*:1]; AEEA = NCCOCCOCC(=O)O
Experiments:
Assay in all cases: cell-based or functional assay
[1] = target: T1, human amylin 3(a) receptor (human calcitonin receptor co-expressed with RAMP-3) on BHK570/CRE-luc cells (human, UniProt P30988 25-474; O60896 24-148)
T1 sequence (looked up) 1: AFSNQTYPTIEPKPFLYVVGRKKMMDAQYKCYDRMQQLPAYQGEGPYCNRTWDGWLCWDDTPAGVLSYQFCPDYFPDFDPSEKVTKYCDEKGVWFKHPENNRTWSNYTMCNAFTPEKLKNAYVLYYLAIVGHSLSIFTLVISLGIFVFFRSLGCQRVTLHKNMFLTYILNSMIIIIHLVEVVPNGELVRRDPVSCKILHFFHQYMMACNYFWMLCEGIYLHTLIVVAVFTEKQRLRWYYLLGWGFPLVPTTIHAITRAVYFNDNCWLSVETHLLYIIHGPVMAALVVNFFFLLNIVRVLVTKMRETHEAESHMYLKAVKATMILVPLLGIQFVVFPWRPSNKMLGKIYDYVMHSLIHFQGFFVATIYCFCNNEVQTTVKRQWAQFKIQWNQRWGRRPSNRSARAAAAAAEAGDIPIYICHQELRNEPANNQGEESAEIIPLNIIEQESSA
T1 sequence (looked up) 2: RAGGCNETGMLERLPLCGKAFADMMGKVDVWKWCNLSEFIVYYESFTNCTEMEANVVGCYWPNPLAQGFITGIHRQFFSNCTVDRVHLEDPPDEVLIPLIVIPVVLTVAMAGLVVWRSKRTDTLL

[2] = target: T2, human calcitonin receptor on BHK570/CRE-luc cells (human, UniProt P30988 25-474)
T2 sequence (looked up): T1 sequence (looked up) 1

[3] = target: T3, human calcitonin receptor (human, UniProt P30988 25-474)
T3 sequence (looked up): T1 sequence (looked up) 1

[4] = target: T4, human amylin 3(a) receptor (human calcitonin receptor co-expressed with RAMP-3) (human, UniProt P30988 25-474; O60896 24-148, limits assumed)
T4 sequence (looked up) 1: T1 sequence (looked up) 1
T4 sequence (looked up) 2: T1 sequence (looked up) 2

- hAmylin-R funct. EC50 (pM), tested with HSA [1]: 26 pM
- hCTR funct. EC50 (pM), tested with HSA [2]: 9 pM
B1: [N-terminal(C18 diacid-gGlu), des1, 30S]mimylin (peptide)
peptide: {C18 diacid-γGlu}-ASELSTAALGRLSAELHELATLPRTETGSESP-NH2
SMILES: CC(C)C[C@H](NC(=O)[C@H](C)NC(=O)[C@H](C)NC(=O)[C@@H](NC(=O)[C@H](CO)NC(=O)[C@H](CC(C)C)NC(=O)[C@H](CCC(=O)O)NC(=O)[C@H](CO)NC(=O)[C@H](C)NC(=O)CC[C@H](NC(=O)CCCCCCCCCCCCCCCCC(=O)O)C(=O)O)[C@@H](C)O)C(=O)NCC(=O)N[C@@H](CCCNC(=N)N)C(=O)N[C@@H](CC(C)C)C(=O)N[C@@H](CO)C(=O)N[C@@H](C)C(=O)N[C@@H](CCC(=O)O)C(=O)N[C@@H](CC(C)C)C(=O)N[C@@H](Cc1c[nH]cn1)C(=O)N[C@@H](CCC(=O)O)C(=O)N[C@@H](CC(C)C)C(=O)N[C@@H](C)C(=O)N[C@H](C(=O)N[C@@H](CC(C)C)C(=O)N1CCC[C@H]1C(=O)N[C@@H](CCCNC(=N)N)C(=O)N[C@H](C(=O)N[C@@H](CCC(=O)O)C(=O)N[C@H](C(=O)NCC(=O)N[C@@H](CO)C(=O)N[C@@H](CCC(=O)O)C(=O)N[C@@H](CO)C(=O)N1CCC[C@H]1C(N)=O)[C@@H](C)O)[C@@H](C)O)[C@@H](C)O

- hCTR funct. EC50 (pM) [3]: 8 pM
- hAmylin-R funct. EC50 (pM) [4]: 16 pM
B2: [N-terminal(C18 diacid), 9V, 12K, 25K]mimylin (peptide)
peptide: {C18 diacid}-EASELSTAVLGKLSAELHELATLPKTETGPESP-NH2
SMILES: CC(C)C[C@H](NC(=O)[C@H](CCC(=O)O)NC(=O)[C@H](Cc1c[nH]cn1)NC(=O)[C@H](CC(C)C)NC(=O)[C@H](CCC(=O)O)NC(=O)[C@H](C)NC(=O)[C@H](CO)NC(=O)[C@H](CC(C)C)NC(=O)[C@H](CCCCN)NC(=O)CNC(=O)[C@H](CC(C)C)NC(=O)[C@@H](NC(=O)[C@H](C)NC(=O)[C@@H](NC(=O)[C@H](CO)NC(=O)[C@H](CC(C)C)NC(=O)[C@H](CCC(=O)O)NC(=O)[C@H](CO)NC(=O)[C@H](C)NC(=O)[C@H](CCC(=O)O)NC(=O)CCCCCCCCCCCCCCCCC(=O)O)[C@@H](C)O)C(C)C)C(=O)N[C@@H](C)C(=O)N[C@H](C(=O)N[C@@H](CC(C)C)C(=O)N1CCC[C@H]1C(=O)N[C@@H](CCCCN)C(=O)N[C@H](C(=O)N[C@@H](CCC(=O)O)C(=O)N[C@H](C(=O)NCC(=O)N1CCC[C@H]1C(=O)N[C@@H](CCC(=O)O)C(=O)N[C@@H](CO)C(=O)N1CCC[C@H]1C(N)=O)[C@@H](C)O)[C@@H](C)O)[C@@H](C)O

- hCTR funct. EC50 (pM) [3]: 15 pM
- hAmylin-R funct. EC50 (pM) [4]: 18 pM
Binder: {C16 diacid-γGlu}-ASELSTAALGRLSAELHELATLPRTETGSGSP-NH2 [[N-terminal(C16 diacid-gGlu), des1, 30S, 31G]mimylin]

- hCTR funct. EC50 (pM) [3]: 11 pM
- hAmylin-R funct. EC50 (pM) [4]: 18 pM
Binder: {C20 diacid-γGlu-AEEA-AEEA-AEEA}-ASELSTAALGRLSAELHELATLPRTETGSGSP-NH2 [[N-terminal(C20 diacid-gGlu-3xOEG), des1, 30S, 31G]mimylin]

- hCTR funct. EC50 (pM) [3]: 13 pM
- hAmylin-R funct. EC50 (pM) [4]: 24 pM
Binder: {C20 diacid-γGlu-AEEA-AEEA-AEEA-AEEA}-ASELSTAALGRLSAELHELATLPRTETGSGSP-NH2 [[N-terminal(C20 diacid-gGlu-4xOEG), des1, 30S, 31G]mimylin]

- hCTR funct. EC50 (pM) [3]: 17 pM
- hAmylin-R funct. EC50 (pM) [4]: 18 pM
Binder: {C18 diacid}-ASELSTAALGRLSAELHELATLPRTETGSGSP-NH2 [[N-terminal(C18 diacid), des1, 30S, 31G]mimylin]

- hAmylin-R funct. EC50 (pM), tested with HSA [1]: 39 pM
- hCTR funct. EC50 (pM), tested with HSA [2]: 19 pM
Binder: {C18 diacid}-EASELSTAALGRLSAELHELATLPRTETGSGSP-NH2 [[N-terminal(C18 diacid), 30S, 31G]mimylin]

- hCTR funct. EC50 (pM) [3]: 18 pM
- hAmylin-R funct. EC50 (pM) [4]: 27 pM
Binder: {C20 diacid-γGlu-AEEA}-ASELSTAALGRLSAELHELATLPRTETGSGSP-NH2 [[N-terminal(C20 diacid-gGlu-OEG), des1, 30S, 31G]mimylin]

- hCTR funct. EC50 (pM) [3]: 14 pM
- hAmylin-R funct. EC50 (pM) [4]: 13 pM
Binder: {C20 diacid-γGlu}-ASELSTAALGRLSAELHELATLPRTETGSGSP-NH2 [[N-terminal(C20 diacid-gGlu), des1, 30S, 31G]mimylin]

- hCTR funct. EC50 (pM) [3]: 12 pM
- hAmylin-R funct. EC50 (pM) [4]: 17 pM
Binder: {C20 diacid-γGlu-AEEA-AEEA}-ASELSTAALGRLSAELHELATLPRTETGSGSP-NH2 [[N-terminal(C20 diacid-gGlu-2xOEG), des1, 30S, 31G]mimylin]

- hCTR funct. EC50 (pM) [3]: 17 pM
- hAmylin-R funct. EC50 (pM) [4]: 16 pM
Binder: {C18 diacid-γGlu}-ASELSTAALGRLSAELHELATLPRTETGSGSP-NH2 [[N-terminal(C18 diacid-gGlu), des1, 30S, 31G]mimylin]

- hAmylin-R funct. EC50 (pM), tested with HSA [1]: 61 pM
- hCTR funct. EC50 (pM), tested with HSA [2]: 26 pM
Binder: {C20 diacid}-EASELSTAALGRLSAELHELATLPRTETGSGSP-NH2 [[N-terminal(C20 diacid), 30S, 31G]mimylin]

- hCTR funct. EC50 (pM) [3]: 10 pM
- hAmylin-R funct. EC50 (pM) [4]: 15 pM
Binder: {C20 diacid-γGlu-AEEA-AEEA-AEEA-AEEA-AEEA}-ASELSTAALGRLSAELHELATLPRTETGSGSP-NH2 [[N-terminal(C20 diacid-gGlu-5xOEG), des1, 30S, 31G]mimylin]

- hCTR funct. EC50 (pM) [3]: 6 pM
- hAmylin-R funct. EC50 (pM) [4]: 12 pM
B3: [N-terminal(C18 diacid), 3P, 4P, 9V]mimylin (peptide)
peptide: {C18 diacid}-EAPPLSTAVLGRLSAELHELATLPRTETGPESP-NH2
SMILES: CC(C)C[C@H](NC(=O)[C@H](CCC(=O)O)NC(=O)[C@H](Cc1c[nH]cn1)NC(=O)[C@H](CC(C)C)NC(=O)[C@H](CCC(=O)O)NC(=O)[C@H](C)NC(=O)[C@H](CO)NC(=O)[C@H](CC(C)C)NC(=O)[C@H](CCCNC(=N)N)NC(=O)CNC(=O)[C@H](CC(C)C)NC(=O)[C@@H](NC(=O)[C@H](C)NC(=O)[C@@H](NC(=O)[C@H](CO)NC(=O)[C@H](CC(C)C)NC(=O)[C@@H]1CCCN1C(=O)[C@@H]1CCCN1C(=O)[C@H](C)NC(=O)[C@H](CCC(=O)O)NC(=O)CCCCCCCCCCCCCCCCC(=O)O)[C@@H](C)O)C(C)C)C(=O)N[C@@H](C)C(=O)N[C@H](C(=O)N[C@@H](CC(C)C)C(=O)N1CCC[C@H]1C(=O)N[C@@H](CCCNC(=N)N)C(=O)N[C@H](C(=O)N[C@@H](CCC(=O)O)C(=O)N[C@H](C(=O)NCC(=O)N1CCC[C@H]1C(=O)N[C@@H](CCC(=O)O)C(=O)N[C@@H](CO)C(=O)N1CCC[C@H]1C(N)=O)[C@@H](C)O)[C@@H](C)O)[C@@H](C)O
